{
  "source": "paper PMC3141380",
  "about": "“Crystal structure of alkyl hydroperoxidase D like protein PA0269 from Pseudomonas aeruginosa: Homology of the AhpD-like structural family” (BMC Structural Biology, 2011)",
  "key": {"[1]": {"molecular_target": "the molecule itself", "test": "crystal structure; SeMet protein, space group P6(3)22, one molecule in the asymmetric unit; hexamer built by crystallographic symmetry; crystals from 0.1 M Tris pH 7.6, 0.2 M NaCl, phosphate, 20°C"}, "[2]": {"molecular_target": "the molecule itself", "test": "SEC; Superdex 200 26/60, 10 mM HEPES pH 7.5, 0.25 M NaCl, 0.5 mM TCEP; data not shown"}},
  "data": [
    {"protein": "Alkyl hydroperoxidase D like protein PA0269 from Pseudomonas aeruginosa (natural protein, P. aeruginosa, UniProt Q9I6M1 1-145, looked up, selenomethionine (four Se-Met residues found in the structure, Se in partial occupancy), PA0269 (AhpD-like protein), Pseudomonas aeruginosa strain 633 (ATCC 17933D) genomic DNA, full length protein of 145 aa, cloned in pET15b; A native sample with and without the His tag was also made; also called P. aeruginosa AhpD; putative AhpD; source: E. coli BL21 (DE3), M9 selenomethionine media, purified (DE52, Ni-NTA, Superdex 200 gel filtration)) MTTRLEWAKASPDAYAAMLGLEKALAKAGLERPLIELVYLRTSQINGCAYCVNMHANDARKAGETEQRLQALCVWQETPYFTPRERAALAWTEQLARLSQGALPHGLLDELREHFDDKEIAELTLAVSAINAWNRFGVGMGMQPE", "values": [
      {"measurement": "stoichiometry N", "setting": "[1]", "result": 6},
      {"measurement": "stoichiometry N", "setting": "[2]", "result": 5.5}
    ]}
  ]
}
